Assay results taken from paper PMC6374739.

B1: mCherry-UVR8-GFP (wild-type UV … LOCUS 8, from the pFRET-NcCg-DEST vector) [Arabidopsis thaliana] / itself (parent)
chain: MAEDMAADEVTAPPRKVLIISAGASHSVALLSGDIVCSWGRGEDGQLGHGDAEDRPSPTQLSALDGHQIVSVTCGADHTVAYSQSGMEVYSWGWGDFGRLGHGNSSDLFTPLPIKALHGIRIKQIACGDSHCLAVTMEGEVQSWGRNQNGQLGLGDTEDSLVPQKIQAFEGIRIKMVAAGAEHTAAVTEDGDLYGWGWGRYGNLGLGDRTDRLVPERVTSTGGEKMSMVACGWRHTISVSYSGALYTYGWSKYGQLGHGDLEDHLIPHKLEALSNSFISQISGGWRHTMALTSDGKLYGWGWNKFGQVGVGNNLDQCSPVQVRFPDDQKVVQVSCGWRHTLAVTERNNVFAWGRGTNGQLGIGESVDRNFPKIIEALSVDGASGQHIESSNIDPSSGKSWVSPAERYAVVPDETGLTDGSSKGNGGDISVPQTDVKRVRI

Experiments:
Conditions in all cases: with itself, read off a plot
itself [1] = variants of: B1; assay: FRET by acceptor photobleaching in tobacco leaves, pFRET-NcCg-DEST vector
itself [2] = variants of: B1; assay: FRET (sensitized emission ratio mCherry(488)/GFP(488)) in tobacco leaves, pFRET-NcCg-DEST vector
itself [3] = variants of: B1; assay: intermolecular FRET (sensitized emission ratio mCherry(488)/GFP(488)) in tobacco leaves, pFRET-2in1-DEST vector
[4] = +UV-B: 3 μmol m–2 s–1 broadband UV-B for 1 hour, parent: 11
[5] = +UV-B: 3 μmol m–2 s–1 broadband UV-B for 1 hour, parent: 0.5
[6] = +UV-B: 3 μmol m–2 s–1 broadband UV-B for 1 hour, parent: 0.44

Row | response (itself [1]; [4]) [%] | response (itself [1]; -UV-B, parent: 18) [%] | Variant | response (itself [2]; [5]) | response (itself [2]; -UV-B, parent: 0.56) | response (itself [3]; [6]) | response (itself [3]; -UV-B, parent: 0.5)
1 | 17 | 17 | MAEDMAADEVTAPPRKVLIISAGASHSVALLSGDIVCSWGRGEDGQLGHGDAEDRPSPTQLSALDGHQIVSVTCGADHTVAYSQSGMEVYSWGWGDFGRLGHGNSSDLFTPLPIKALHGIRIKQIACGDSHCLAVTMEGEVQSWGRNQNGQLGLGDTEDSLVPQKIQAFEGIRIKMVAAGAEHTAAVTEDGDLYGWGWGRYGNLGLGDRTDRLVPERVTSTGGEKMSMVACGWRHTISVSYSGALYTYGWSKYGQLGHGDLEDHLIPHKLEALSNSFISQISGGFRHTMALTSDGKLYGWGWNKFGQVGVGNNLDQCSPVQVRFPDDQKVVQVSCGWRHTLAVTERNNVFAWGRGTNGQLGIGESVDRNFPKIIEALSVDGASGQHIESSNIDPSSGKSWVSPAERYAVVPDETGLTDGSSKGNGGDISVPQTDVKRVRI [chain 1 W285F] | 0.58 | 0.59 | 0.51 | 0.5
2 | 9.7 | 9.6 | MAEDMAADEVTAPPRKVLIISAGASHSVALLSGDIVCSWGRGEDGQLGHGDAEDRPSPTQLSALDGHQIVSVTCGADHTVAYSQSGMEVYSWGWGNFGRLGHGNSSNLFTPLPIKALHGIRIKQIACGDSHCLAVTMEGEVQSWGRNQNGQLGLGDTEDSLVPQKIQAFEGIRIKMVAAGAEHTAAVTEDGDLYGWGWGRYGNLGLGDRTDRLVPERVTSTGGEKMSMVACGWRHTISVSYSGALYTYGWSKYGQLGHGDLEDHLIPHKLEALSNSFISQISGGWRHTMALTSDGKLYGWGWNKFGQVGVGNNLDQCSPVQVRFPDDQKVVQVSCGWRHTLAVTERNNVFAWGRGTNGQLGIGESVDRNFPKIIEALSVDGASGQHIESSNIDPSSGKSWVSPAERYAVVPDETGLTDGSSKGNGGDISVPQTDVKRVRI [chain 1 D96N D107N] | 0.43 | 0.43 | 0.33 | 0.33
